Molecular target: CENP-A-H4 complex (UniProt P49450 1-140; P62805 1-103)
Assay: native gel or EMSA

CENP-A-H4 complex, sequence (P49450 whole entry, one chain of several): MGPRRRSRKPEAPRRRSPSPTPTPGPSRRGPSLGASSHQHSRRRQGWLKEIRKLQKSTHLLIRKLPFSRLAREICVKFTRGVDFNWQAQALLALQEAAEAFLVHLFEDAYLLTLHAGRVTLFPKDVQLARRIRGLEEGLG

B1: His6-EWSR1 (natural protein)
chain: MASTDYSTYSQAAAQQGYSAYTAQPTQGYAQTTQAYGQQSYGTYGQPTDVSYTQAQTTATYGQTAYATSYGQPPTGYTTPTAPQAYSQPVQGYGTGAYDTTTATVTTTQASYAAQSAYGTQPAYPAYGQQPAATAPTRPQDGNKPTETSQPQSSTGGYNQPSLGYGQSNYSYPQVPGSYPMQPVTAPPSYPPTSYSSTQPTSYDQSSYSQQNTYGQPSSYGQQSSYGQQSSYGQQPPTSYPPQTGSYSQAPSQYSQQSSSYGQQSSFRQDHPSSMGVYGQESGGFSGPGENRSMSGPDNRGRGRGGFDRGGMSRGGRGGGRGGMGSAGERGGFNKPGGPMDEGPDLDLGPPVDPDEDSDNSAIYVQGLNDSVTLDDLADFFKQCGVVKMNKRTGQPMIHIYLDKETGKPKGDATVSYEDPPTAKAAVEWFDGKDFQGSKLKVSLARKKPPMNSMRGGLPPREGRGMPPPLRGGPGGPGGPGGPMGRMGGRGGDRGGFPPRGPRGSRGNPSGGGNVQHRAGDWQCPNPGCGNQNFAWRTECNQCKAPKPEGFLPPPFPPPGGDRGRGGPGGMRGGRGGLMDRGGPGGMFRGGRGGDRGGFRGGRGMDRGGFGGGRRGGPGGPPGPLMEQMGGRRGGRGGPGKMDKGEHRQERRDRPY
  binding result: binds

— publication PMC10758295 (Cell reports, 2023)
